Values belong to the molecule of their own block, whether it stands above or below them.
B1: GFP-RILP (mouse RILP in pEGFP-C1) (other, UniProt Q5ND29 1-369, looked up)
chain: MEPRRAAPRLPSQASSSVGAGSAAELVYHLAGALGTELQGLARRFGPDAAAGLVPLVVRALELLEKAAVGPAPDSLQVSAQQAEVELRRLREENQRLRQELGSGPQEERALLRQLKEVTDRQRDELRAHNRDLQRRSQETEALQEQLQRLLLINSELRHKLAAVQTQLRAAQDRERERQIAQDGSSQLAKEQSLEPDAATSDDPVDTQKQPGNLPEAVQCGFSREELKQILQERNELKANVFLLKEELAYFQRELLTDHRVPGLLLEAMKVAVKKQRRKIKAKMLGTPEEAESSEDEDGSWLLLSNDKEDVPLVPESRIQNFFGLWYRGETEAPEAETSNPASSSLQKGEETPQQPHLQPVNSPPAPNS
notes: Expressed in transfected RBL cells; tested in cell lysate; also called GFP-fused RILP; pEGFP-C1-RILP; not shown: EGFP of the pEGFP-C1 vector

What was measured:
[1] = molecular target: T1, T7-RILP(L231A) (pEF-T7-RILP(L231A)) (mouse, UniProt Q5ND29 1-369); assay: cell-based or functional assay
T1 construct: RHD mutant; expressed in transfected RBL cells
T1 sequence (looked up): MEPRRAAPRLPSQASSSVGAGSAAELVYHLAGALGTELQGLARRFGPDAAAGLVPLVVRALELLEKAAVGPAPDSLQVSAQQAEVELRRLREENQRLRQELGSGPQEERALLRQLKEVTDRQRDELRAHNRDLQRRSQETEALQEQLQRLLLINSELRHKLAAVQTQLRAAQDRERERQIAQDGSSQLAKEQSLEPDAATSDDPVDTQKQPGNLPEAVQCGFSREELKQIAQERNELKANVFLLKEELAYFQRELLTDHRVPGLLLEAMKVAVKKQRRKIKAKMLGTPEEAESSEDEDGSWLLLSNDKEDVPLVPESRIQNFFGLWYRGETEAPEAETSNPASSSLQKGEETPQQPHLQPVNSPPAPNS

[2] = molecular target: T7-RILP (pEF-T7-RILP) (mouse) (UniProt Q5ND29); assay: cell-based or functional assay
[3] = molecular target: T2, T7-RILP-L1 (pEF-T7-RILP-L1) (mouse, UniProt Q9JJC6 1-406); assay: co-immunoprecipitation from co-transfected RBL cell lysates, IP anti-GFP, blot anti-T7
T2 construct: The pEF-T7 plasmid was 'prepared as previously described'; also called T7-tagged RILP-L1; RILP-like 1
T2 sequence (looked up): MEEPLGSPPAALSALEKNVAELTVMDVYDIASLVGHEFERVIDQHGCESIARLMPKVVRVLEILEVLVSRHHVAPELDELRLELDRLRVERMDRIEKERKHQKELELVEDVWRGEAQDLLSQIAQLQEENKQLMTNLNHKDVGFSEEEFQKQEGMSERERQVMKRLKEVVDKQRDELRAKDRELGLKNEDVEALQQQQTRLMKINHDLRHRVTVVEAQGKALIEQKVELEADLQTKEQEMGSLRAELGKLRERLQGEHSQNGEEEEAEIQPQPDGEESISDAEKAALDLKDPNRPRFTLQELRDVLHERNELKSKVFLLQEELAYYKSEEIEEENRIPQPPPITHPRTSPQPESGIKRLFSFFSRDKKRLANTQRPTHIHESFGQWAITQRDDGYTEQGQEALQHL
Procedure: (§1) FIGS. 1A, 1B show the results of immunoprecipitations in which cell lysates derived from the rat mast cell line RBL-2H3, herein referred to as RBL cells, that were co-transfected with 17.5 μg of pEGFP plasmid encoding either RILP, RILP-L1 or RILP-L2 and 17.5 μg of pEF plasmid encoding either T7-RILP, T7-RILP-L1 or T7-RILP-L2, as indicated, were subjected to immunoprecipitation with rabbit polyclonal antibodies directed against GFP. FIGS. 1C, 1D show the results of immunoprecipitations in which the RBL cell lysates described above were subjected to immunoprecipitation with mouse monoclonal antibodies directed against the T7 epitope. Immune complexes were then analyzed by SDS-PAGE and immunoblotting with mouse monoclonal anti T7 antibodies, followed by reprobing with polyclonal anti GFP antibodies (FIGS. 1A, 1B), or with polyclonal anti GFP antibodies followed by reprobing with monoclonal anti T7 antibodies (FIGS. 1C, 1D), as indicated. Input=10% of total protein.
(§2) RBL cell lysates (500 μg) prepared in buffer A (50 mM Hepes pH 7.4, 250 mM NaCl, 1 mM MgCl₂, 1% Triton X-100, protease inhibitor mixture, 1 mM PMSF, 2 mM Na₃VO₄) were incubated overnight at 4° C. with either rabbit polyclonal anti-GFP antibodies (2 μg) or mouse monoclonal anti-T7 antibodies (1 μg). Protein A/G-Sepharose (50% v/v) was then added for 1.5 h at 4° C. Immune complexes were collected, washed three times with buffer B (50 mM Hepes pH 7.4, 150 mM NaCl, 1 mM MgCl₂, 0.2% Triton X-100, protease inhibitor mixture, 1 mM PMSF, 2 mM Na₃VO₄), and resuspended in 1× sample buffer, and boiled for 7 min. Proteins were resolved by SDS-PAGE and analyzed by immunoblotting with the desired antibodies.

[4] = molecular target: T3, endogenous Rab12 of RBL cells (rat, UniProt P35284 49-291, limits assumed); assay: GST pulldown of endogenous Rab12 from RBL cell lysates, anti-Rab12 immunoblot
T3 construct: Total Rab12 pulled down from cell lysates (blot reprobed with anti-Rab12)
T3 sequence (looked up): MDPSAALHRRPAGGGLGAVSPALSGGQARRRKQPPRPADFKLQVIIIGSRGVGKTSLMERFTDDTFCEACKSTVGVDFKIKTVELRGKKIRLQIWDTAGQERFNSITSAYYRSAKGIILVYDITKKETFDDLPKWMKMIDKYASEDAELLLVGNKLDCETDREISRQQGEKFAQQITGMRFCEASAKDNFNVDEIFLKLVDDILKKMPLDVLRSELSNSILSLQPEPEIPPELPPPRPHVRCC
Procedure: Cells were then lysed and 500 μg of cell lysate were incubated overnight at 4° C. with either GST, GST-RILP, GST-RILP-L1 or GST-RILP-L2, immobilized on glutathione agarose beads, as indicated. At the end of the incubation period, beads were sedimented by centrifugation at 5000×g for 5 minutes at 4° C., washed four times with buffer containing 50 mM Hepes pH 7.4, 150 mM NaCl, 1 mM MgCl₂, 0.2% Triton X-100, protease inhibitor mixture, 1 mM PMSF, 2 mM Na₃VO₄, 10 mM NaPPi and 80 mM β-glycerophosphate and suspended in 1× sample buffer and boiled for 7 minutes. Proteins were resolved by SDS-PAGE and analyzed by immunoblotting with the anti-phosphoRab12 antibodies, followed by reprobing with anti Rab12 antibodies, as indicated. Representative blots are shown. Similar results were obtained in two separate experiments.
Next, it was assessed whether […] any impact on Rab12 interactions with its RILP family effectors. To this end, lysates derived from resting RBL cells or RBL cells that were triggered with either IgE/Ag or Ion/TPA, were subjected to pulldown assays by chimeric proteins consisting of GST-fused to either RILP, RILP-L1, or RILP-L2, or control GST. […] Therefore, under these conditions, the efficacy of Rab12-effector interactions was RILP-L1>RILP>>>RILP-L2.

[5] = molecular target: B1; assay: co-immunoprecipitation from co-transfected RBL cell lysates, IP anti-GFP, blot anti-T7
Procedure: as §1, §2

[6] = molecular target: T4, GFP-RILP-L1 (mouse RILP-like 1 in pEGFP-C1) (mouse, UniProt Q9JJC6 1-406); assay: as above
T4 construct: Expressed in transfected RBL cells; tested in cell lysate; also called pEGFP-C1-RILP-L1; not shown: EGFP of the pEGFP-C1 vector
T4 sequence (looked up): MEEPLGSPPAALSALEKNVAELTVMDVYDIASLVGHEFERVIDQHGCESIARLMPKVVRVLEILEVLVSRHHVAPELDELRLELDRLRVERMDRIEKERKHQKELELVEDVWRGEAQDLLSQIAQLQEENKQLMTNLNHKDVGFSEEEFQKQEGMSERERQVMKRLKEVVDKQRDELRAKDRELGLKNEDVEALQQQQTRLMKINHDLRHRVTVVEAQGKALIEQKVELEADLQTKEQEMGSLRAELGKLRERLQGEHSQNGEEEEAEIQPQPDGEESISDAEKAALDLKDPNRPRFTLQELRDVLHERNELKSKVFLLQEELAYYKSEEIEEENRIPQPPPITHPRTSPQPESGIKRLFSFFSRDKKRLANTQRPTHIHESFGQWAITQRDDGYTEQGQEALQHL
Procedure: as §1, §2

[7] = molecular target: T5, T7-RILP(E233A) (pEF-T7-RILP(E233A)) (mouse, UniProt Q5ND29 1-369); assay: GST-Rab12 pulldown from RBL cell lysates with GTPgammaS, anti-T7 immunoblot
T5 construct: RHD mutant; expressed in transfected RBL cells
T5 sequence (looked up): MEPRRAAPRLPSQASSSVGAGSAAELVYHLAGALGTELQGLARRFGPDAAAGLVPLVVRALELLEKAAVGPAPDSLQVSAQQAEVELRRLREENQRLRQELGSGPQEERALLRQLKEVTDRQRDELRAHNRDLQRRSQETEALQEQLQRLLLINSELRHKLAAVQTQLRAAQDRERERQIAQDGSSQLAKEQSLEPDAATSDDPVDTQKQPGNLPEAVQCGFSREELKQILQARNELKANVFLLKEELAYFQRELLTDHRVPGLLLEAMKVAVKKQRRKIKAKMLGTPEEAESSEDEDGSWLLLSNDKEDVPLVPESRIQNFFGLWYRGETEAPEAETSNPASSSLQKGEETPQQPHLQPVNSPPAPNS
Procedure: (§3) Bound proteins were eluted by sample buffer, and analyzed by SDS-PAGE and immunoblotting, using monoclonal antibodies directed against T7. Input=10% of total protein. A representative blot is shown. […] The results are the average pulldown±SEM derived from three independent experiments. *P[(T7-RILP/T7-RILP(L231A)]=0.0480, *P[T7-RILP/T7-RILP(E233A)]=0.0498.
(§4) Pulldown assays were performed as previously described 2. Briefly, 20 μg of GST fusion proteins or control GST immobilized on Glutathione Agarose beads were incubated for 18 hours at 4° C. with RBL cell lysates (500 μg) prepared in buffer C (50 mM Hepes pH 7.4, 150 mM NaCl, 1 mM MgCl₂, 1% TritonX100, 1 mM PMSF, protease inhibitor mixture, 2 mM Na₃VO₄) in the presence of 0.5 mM GTPγS. At the end of the incubation period, beads were sedimented by centrifugation at 5000×g for 5 minutes at 4° C., washed 4 times in buffer C with 0.2% TritonX100, and finally suspended in sample buffer, boiled for 7 minutes, and subjected to SDS-PAGE and immunoblotting. In pulldown experiments of endogenous phosphoRab12, cell lysates were prepared in buffer D (50 mM Hepes pH 7.4, 150 mM NaCl, 1 mM MgCl₂, 1% TritonX100, 1 mM PMSF, protease inhibitor mixture, 2 mM Na₃VO₄, 10 mM NaPPi and 80 mM β-glycerophosphate) and the pulldown assay was conducted in the absence of GTPγS. Beads were washed in buffer D with 0.2% TritonX100.

[8] = molecular target: T1, T7-RILP(L231A) (pEF-T7-RILP(L231A)); assay: as above
Procedure: as §3, §4

Molecule: GFP-Rab12 (pEGFP-C1-Rab12) (from UniProt P35283 49-291)
incidence of cells with scattered secretory granules (NPY-mRFP), confocal microscopy of RBL cells [1]: 97%
incidence of cells with perinuclear secretory granules (NPY-mRFP), confocal microscopy of RBL cells [2]: 99%

Molecule: B1
binding result [3]: no binding

fold increase in Rab12 pulldown, Ion/TPA-triggered against resting cells [4]: 4 fold
B2: GST-RILP-L2 (pGEX-4T-3-RILP-L2) (other, mouse, UniProt Q99LE1 1-197, looked up)
chain: MEDHPVREEEDGEEDEGALAKSPLQLTTDDVYDISYVVGRELMALGSDPRVTRLQFKIVRVMEMLETLVNEGSLAVEELRMERDNLKQEVEGLRKAGVSGAQVNLGPDKMVVDLTDPNRPRFTLQELREVLQERNKLKSQLLLVQEELQCYRSGLLPPRETPGGRREKDAVVAMGNGEKEERTIMKKLFSFRSGKHT
notes: Immobilized on glutathione agarose beads; not shown: glutathione S-transferase (GST) encoded by the pGEX-4T-3 vector

binding result [5]: no binding
binding result [6]: no binding
B3: T7-RILP-L2 (pEF-T7-RILP-L2) (other, mouse, UniProt Q99LE1 1-197, looked up, not shown: small tags and cut ends)
chain: MEDHPVREEEDGEEDEGALAKSPLQLTTDDVYDISYVVGRELMALGSDPRVTRLQFKIVRVMEMLETLVNEGSLAVEELRMERDNLKQEVEGLRKAGVSGAQVNLGPDKMVVDLTDPNRPRFTLQELREVLQERNKLKSQLLLVQEELQCYRSGLLPPRETPGGRREKDAVVAMGNGEKEERTIMKKLFSFRSGKHT
notes: The pEF-T7 plasmid was 'prepared as previously described'; also called T7-tagged RILP-L2; RILP-like 2

binding result [7]: no binding
binding result [8]: no binding
B4: GST-Rab12 (pGEX-4T-3-Rab12) (other, mouse, UniProt P35283 49-291, looked up)
chain: MDPSAALHRRPAGGSLGAVSPALSGGQARRRKQPPRPADFKLQVIIIGSRGVGKTSLMERFTDDTFCEACKSTVGVDFKIKTVELRGKKIRLQIWDTAGQERFNSITSAYYRSAKGIILVYDITKKETFDDLPKWMKMIDKYASEDAELLLVGNKLDCETDREISRQQGEKFAQQITGMRFCEASAKDNFNVDEIFLKLVDDILKKMPLDVLRNELSNSILSLQPEPEIPPELPPPRPHVRCC
notes: Immobilized on glutathione agarose beads; pulldown in the presence of 0.5 mM GTPgammaS; also called immobilized Rab12; not shown: glutathione S-transferase (GST) encoded by the pGEX-4T-3 vector
